Assay results reported in patent publication US20090130131A1.
Read-outs that look alike come from different tables or passages of the source.

Experiments:
[1] = molecular target: Influenza split vaccine A/New Caledonia/20/99 (H1N1)
[2] = molecular target: Influenza split vaccine A/New Caledonia/20/99 (H1N1); remark: listed apart in the source
[3] = molecular target: Influenza split vaccine A/New York/55/2004 (H3N2)
[4] = molecular target: Influenza split vaccine B/Shanghai/361/2002
[5] = molecular target: Influenza split vaccine A/New Caledonia/20/99 (H1N1); remark: listed apart in the source

| Molecule | Coupling Ratio (%) [1] [%] | Coupling Ratio (%) [5] [%] | other results |
| --- | --- | --- | --- |
| Synthetic AD vehicle SSF-30 (from UniProt P07988 220-260) | 91.3 |  |  |
| Synthetic AD vehicle SSF-28 (from UniProt P07988 201-260) |  |  | Coupling Ratio (%) [2]: 83%; Coupling Ratio (%) [3]: 64.4%; Coupling Ratio (%) [4]: 87.9% |
| FGIPSSPVHLKRLLILKLLLLKILLLKLGALLIGL [Synthetic AD vehicle SSF-48] |  | 66.3 |  |
| FPIPLPYCWLCRALIKRIQAMIPKG [Synthetic AD vehicle SSF-14] | 57 |  |  |
| IPCCPVHLKRLKLLLLLLLLILLLILGALLMGL [Synthetic AD vehicle SSF-46] |  | 76.2 |  |
| KLLLLKLLLLKLLLLKLLLL [Synthetic AD vehicle SSF-45] |  | 64.8 |  |
| PVHLKRLLLLLLLLLLLLLLLL [Synthetic AD vehicle SSF-44] |  | 72.8 |  |
| RMLPQLVCRLVLRCSMD [Synthetic AD vehicle SSF-24] | 91.3 |  |  |
| GIPFFPVHLKRLKLLLLLLLLILLLILGALLIGL [Synthetic AD vehicle SSF-47] |  | 86.9 |  |
